Experimental data published in EP2767548A2.

Biological target: Human CD16 (biotinylated, Sino Biological Inc, cat#10389-H27H1-B) (human) (UniProt P08637)
Assay: ELISA, biotinylated CD16 captured on neutravidin, anti-human Fab-HRP detection

Chain of Human CD16 (biotinylated, Sino Biological Inc, cat#10389-H27H1-B) (human) (P08637 17-208): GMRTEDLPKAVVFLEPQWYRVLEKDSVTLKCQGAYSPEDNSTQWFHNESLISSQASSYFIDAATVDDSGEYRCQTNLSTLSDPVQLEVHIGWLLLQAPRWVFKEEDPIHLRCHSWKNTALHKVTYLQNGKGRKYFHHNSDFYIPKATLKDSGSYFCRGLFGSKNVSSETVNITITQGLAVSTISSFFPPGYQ

## Synagis (antibody)
  EC50: 6.15 mg/L
